{"source": "patent US12698495B2", "about": "“Engineered tryptophan decarboxylases and uses thereof for synthesizing tryptamine analogs” (priority 2022, dated 2026)", "molecules": {"B1": {"name": "2B9: engineered PfTrpB variant 2B9, SEQ ID NO:3 (protein, listed as Pyrococcus furiosus)", "chain": "MWFGEFGGQYVPETLVGPLKELEKAYKRFKDDEEFNRQLNYYLKTWAGRPTPLYYAKRLTEKIGGAKVYLKREDLVHGGAHKTNNAIGQALLAKLMGKTRLIAETGAGQHGVATAMAGALLGMKVDIYMGAEDVERQKMNVFRMKLLGANVIPVNSGSRTLKDAINEALRDWVATFEYTHYLIGSVVGPHPYPTIVRDFQSVIGREAKAQILEAEGQLPDVIVACVGGGSNAMGIFYPFVNDKKVKLVGVEAGGKGLESGKHSASLNAGQVGVSHGMLSYFLQDEEGQIKPSHSIAPGLDYPGVGPEHAYLKKIQRAEYVAVTDEEALKAFHELSRTEGIIPALESAHAVAYAMKLAKEMSRDEIIIVNLSGRGDKDLDIVLKASGNVLEHHHHHH"}, "B2": {"name": "H275E (protein, listed as Pyrococcus furiosus)", "chain": "B1 chain with H275E"}}, "key": {"serotonin receptor": {"tested_on": "serotonin receptor", "details": "known from literature (ref. 43); cited from earlier work"}, "[1]": {"details": "cited from earlier work"}, "[2]": {"test": "PfTrpB variant activity and promiscuity", "format": "biochemical, Pyrococcus furiosus"}}, "note": "Changes are numbered by the printed parent chain. In names and notes the source's numbering stands."}
{"molecule": "COc1ccc2[nH]cc(CCN)c2c1", "note": "[5-OMe-tryptamine]", "values": [{"measurement": "serotonin receptor activity", "setting": "serotonin receptor", "value": "agonists"}]}
{"molecule": "CCOc1ccc2[nH]cc(CCN)c2c1", "note": "[5-OEt-tryptamine]", "values": [{"measurement": "serotonin receptor activity", "setting": "serotonin receptor", "value": "agonists"}]}
{"molecule": "B1", "values": [{"measurement": "activity with a variety of substrate analogs", "setting": "[1]; 75° C.", "value": "high activity"}, {"measurement": "activity at lower temperatures", "setting": "[1]; lower temperatures than 75° C.", "value": "activity decreases"}]}
{"molecule": "B2", "values": [{"measurement": "activity and promiscuity of PfTrpB variant in SUMS", "setting": "[2]", "value": "generally activated"}, {"measurement": "activity of PfTrpB mutant", "setting": "[2]; 75° C.", "value": "activating"}]}
